From patent US20190202925A1 (OPI VI IP HOLDCO, published 2019)
Like-named read-outs stand apart in the source and are kept apart here.

T1: soluble human TNFR2 (human, UniProt P20333 23-257)
T1 construct: also called soluble TNFR2
T1 sequence (looked up): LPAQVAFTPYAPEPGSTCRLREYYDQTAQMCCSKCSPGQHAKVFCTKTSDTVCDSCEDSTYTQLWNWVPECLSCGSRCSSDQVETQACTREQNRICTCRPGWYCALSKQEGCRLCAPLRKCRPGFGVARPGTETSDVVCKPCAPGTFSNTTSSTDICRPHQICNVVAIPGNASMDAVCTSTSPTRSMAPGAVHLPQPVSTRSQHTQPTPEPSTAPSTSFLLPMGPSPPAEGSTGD

T2: soluble cynomolgus TNFR2 (cynomolgus, UniProt A0A2K5VET2 132-366)
T2 sequence: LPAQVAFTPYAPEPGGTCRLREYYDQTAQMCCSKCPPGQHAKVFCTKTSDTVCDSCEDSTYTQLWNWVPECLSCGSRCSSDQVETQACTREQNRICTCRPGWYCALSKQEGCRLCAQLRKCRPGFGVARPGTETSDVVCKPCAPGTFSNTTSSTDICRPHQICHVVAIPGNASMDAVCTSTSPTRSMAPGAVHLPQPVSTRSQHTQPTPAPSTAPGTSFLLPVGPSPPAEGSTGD

T3: monomeric cynomolgus TNFR2 extracellular domain (cynomolgus monkey, UniProt A0A2K5VET2 132-366)
T3 construct: extracellular domain; Analyte in the Octet experiments; also called cynomolgus TNFR2 ECD; Cyno TNFR2
T3 sequence: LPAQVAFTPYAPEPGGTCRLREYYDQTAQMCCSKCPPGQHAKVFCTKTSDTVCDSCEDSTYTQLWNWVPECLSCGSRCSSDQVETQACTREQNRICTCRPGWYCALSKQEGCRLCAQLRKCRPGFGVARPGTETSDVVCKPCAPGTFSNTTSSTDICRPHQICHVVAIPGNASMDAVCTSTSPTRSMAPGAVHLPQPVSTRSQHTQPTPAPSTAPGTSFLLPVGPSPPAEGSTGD

T4: monomeric human TNFR2 extracellular domain (human, UniProt P20333 23-257)
T4 construct: extracellular domain; Analyte in the Octet experiments; also called human TNFR2 ECD
T4 sequence (looked up): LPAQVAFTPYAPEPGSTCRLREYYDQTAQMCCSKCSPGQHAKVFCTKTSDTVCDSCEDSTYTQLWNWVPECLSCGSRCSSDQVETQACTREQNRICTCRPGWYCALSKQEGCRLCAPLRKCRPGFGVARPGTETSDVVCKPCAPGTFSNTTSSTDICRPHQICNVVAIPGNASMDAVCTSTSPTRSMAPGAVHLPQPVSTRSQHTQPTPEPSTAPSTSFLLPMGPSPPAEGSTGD


Legend:
soluble human TNFR2 [1] = target: T1, soluble human TNFR2; experiment: competition ELISA: plate-bound soluble human TNFR2, competitor biotinylated TNFα; IC50 relative to unlabelled TNFα = 1.00
Method: (§1) Soluble human TNFR2 (Sino Biological, 10417-H08H) or cynomolgus TNFR2 (Sino Biological, 90102-C08H) was coated on Nunc-Immuno™ plates at 0.1 μg/ml, 0.5 ug/ml, 1 μg/ml, and 5 μg/ml. […] Plates were developed using TMB and stopped with 3 M HCl.
(§2) IC₅₀ values are reported in nM.

[2] = target: T5, cynomolgus TNFR2 on cells (cynomolgus); experiment: flow cytometry on cynomolgus PBMC, antibody at 10 ug/mL, anti-human Fc-PE secondary
T5 construct: whole, on cells; also called cynomolgus TNFR2 on CD4+ and CD8+ T cells
Method: Cynomolgus peripheral blood mononuclear cells (PBMCs) from two independent donors were isolated by diluting whole blood (SNBL USA) 1:1 in PBS (Lonza), layering over Ficoll-Paque Plus (GE Healthcare), and centrifuging for 35 minutes at 400×g. The PBMC fraction was removed, washed 3 times in 2% FBS PBS and counted. 0.3×10⁶ PBMC were resuspended in Fixable Viability Stain 575V (BD) diluted 1:1000 in PBS and incubated for 10 minutes. PBMC were then washed twice in PBS to remove residual viability stain, resuspended in Horizon Brilliant Stain Buffer (BD) with 10 uL per test of human Fc receptor binding inhibitor (eBioscience), and incubated on ice for 20 minutes to block Fc receptors. […] PBMC were incubated 20 minutes on ice and then washed three times with 2% FBS PBS. To visualize TNFR2 chimeric antibody binding, PBMC were resuspended in goat anti-human Fc-PE F(ab′)₂ secondary reagent (Jackson ImmunoResearch) diluted 1:200 in 2% FBS PBS and incubated on ice for 20 minutes. Cells were then washed three times in 2% FBS PBS and resuspended in 200 uL 2% FBS PBS for flow cytometry analysis using a BD FACS Celesta instrument and FACS Diva software. T cells were analyzed for chimeric TNFR2 binding by gating on viable cells defined as lymphocytes using forward and side scatter and as T cells by anti-CD3 staining. CD4⁺ and CD8⁺ subsets were identified using commercial specific antibody conjugates.

soluble cynomolgus TNFR2 [3] = target: T2, soluble cynomolgus TNFR2; experiment: competition ELISA: plate-bound soluble cynomolgus TNFR2, competitor biotinylated TNFα; IC50 relative to unlabelled TNFα = 1.00
Method: as §1, §2

soluble human TNFR2 [4] = target: T1, soluble human TNFR2; experiment: competition ELISA: plate-bound soluble human TNFR2, competitor biotinylated TNFα; IC50 relative to unlabelled TNFα = 1.00; remark: listed apart in the source
Method: as §1

soluble cynomolgus TNFR2 [5] = target: T2, soluble cynomolgus TNFR2; experiment: competition ELISA, plate-bound soluble cynomolgus TNFR2, biotinylated TNFα as competitor
Method: as §1, §2

soluble cynomolgus TNFR2 [6] = target: T2, soluble cynomolgus TNFR2; experiment: competition ELISA: plate-bound soluble cynomolgus TNFR2, competitor biotinylated TNFα, streptavidin-HRP, A450
Method: as §1

soluble cynomolgus TNFR2 [7] = target: T2, soluble cynomolgus TNFR2; experiment: competition ELISA: plate-bound soluble cynomolgus TNFR2, competitor biotinylated TNFα; IC50 relative to unlabelled TNFα = 1.00; remark: listed apart in the source
Method: as §1

[8] = target: T3, monomeric cynomolgus TNFR2 …; experiment: BLI (Octet Red 96), antibody captured on Fc biosensor, monomeric TNFR2 ECD in solution, 1:1 model
[9] = target: T4, monomeric human TNFR2 extracellular …; experiment: as above
soluble cynomolgus TNFR2 [10] = target: T2, soluble cynomolgus TNFR2; experiment: competition ELISA: plate-bound soluble cynomolgus TNFR2, competitor biotinylated TNFα, streptavidin-HRP, A450; remark: listed apart in the source
Method: as §1

Relative IC50 (soluble human TNFR2 [1]) [nM]	% CD4^+ ab^+ Donor 1 [2] [%]	% CD4^+ ab^+ Donor 2 [2] [%]	% CD8^+ ab^+ Donor 1 [2] [%]	% CD8^+ ab^+ Donor 2 [2] [%]	Relative IC50 (soluble cynomolgus TNFR2 [3]) [nM]	Relative IC50 (soluble human TNFR2 [4]) [nM]	Average Relative IC50 (soluble cynomolgus TNFR2 [5])	IC50 (soluble cynomolgus TNFR2 [6]) [nM]	Relative IC50 (soluble cynomolgus TNFR2 [7]) [nM]	Kd [8] [nM]	Kd [9] [nM]	IC50 (soluble cynomolgus TNFR2 [10]) [nM]	Binder
3.54	10.2	7.6	11.2	18.4	3.22	6.72	3.64	31	4.45	3.4	3.6	16.7	chimeric SBT-004 (antibody, V domains shown, VH fused to a human IgG1 Fc domain; also called chSBT-004) VH: EVQLQQSGPEVGRPGSSVKISCKASGYTFTDYIMHWVKQSPGQGLEWIGWVDPEYGSTDYAEKFKKKATLTADTSSNTAYIQLSSLTSEDTATYFCARDDGSYSPFDYWGQGVMVTVSS VL: DIQMTQSPPSLSASLGDKVTITCQASQNINKYIAWYQQKPGKAPRLLIRYTSTLESGTPSRFSGSGSGRDYSFSISNVESEDIASYYCLQYVNLLTFGAGTKLEIK
2.98	9	14.1	9.5	29	2.87	3.03	3.38	27.6	4.16	0.62	0.8	15.6	chimeric SBT-002 (antibody, V domains shown, also called chSBT-002) VH: QVTLKESGPGILQPSQTLSLTCSFSGFSLSTSGMGVGWIRQPSGKGLEWLAHIWWDDDKFYNPSLKSQLTISKDTSRNQVFLKLTSVVTADTATYYCARLTGTRYFDYWGQGTTLTVSS VL: DVQMTQSPSSLSASLGGKVTITCKASQDINKFIAWYQHKPGKGPRLLIHYTSTLQPGIPSKFSGSGSGRDYSFSISNLEPEDIATYYCLQYGNLWTFGGGTKLEIT
